The results in this text go back to patent US20250270295A1 (ALBERT LUDWIGS UNIVERSITAET FREIBURG, published 2025).

What is called IC50 is the point on the concentration scale where inhibition reaches its midpoint. Low readings indicate greater potency in that assay, high ones weaker potency in that assay.

Bounds are passed on as bounds.

For assay [1], the target named is T1, soluble gp68 ectodomain, V5-His tagged (sgp68-V5-His) (HCMV strain AD169, UniProt P16739 24-292).
T1 construct: V5 and His tags are in the entry; also called sol gp68; sgp68wt
As to the kind of experiment: ELISA. (An ELISA detects its analyte on a solid surface through an enzyme-linked reagent.)

In assay [2] the target is T2, soluble human ICOSL ectodomain, V5-His tagged (sICOSL-V5His) (human, UniProt O75144 19-256).
T2 construct: extracellular domain; Control protein with the same tags as the vFcγRs
T2 sequence: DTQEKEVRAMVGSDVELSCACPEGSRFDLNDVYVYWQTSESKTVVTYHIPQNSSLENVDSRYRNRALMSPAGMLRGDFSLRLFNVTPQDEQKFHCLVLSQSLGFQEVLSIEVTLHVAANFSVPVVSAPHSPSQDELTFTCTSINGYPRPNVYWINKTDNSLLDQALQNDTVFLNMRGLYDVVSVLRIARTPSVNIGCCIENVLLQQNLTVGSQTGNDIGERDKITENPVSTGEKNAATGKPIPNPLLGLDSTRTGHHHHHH
As to the kind of experiment: western blot.

The target in a further assay is T3, gp68_ECD_wt (HCMV strain AD169, UniProt P16739 24-292).
T3 construct: Called 'same antigen as used for immunization'; used as HEK293T supernatant; also called gp68wt extracellular domain
Kind of assay: ELISA, coated supernatant.

The target of another assay is T4, gp68_ECD_1 (1-201 aa) (HCMV strain AD169, UniProt P16739 24-201).
T4 construct: signal peptide 1-23 left out
Kind of assay: ELISA, coated supernatant.

For assay [3], the target named is T5, gp68_ECD_7 (gp68 ΔO-glyc, 1-293 lacking 27-67aa) (HCMV strain AD169, UniProt P16739 65-292).
T5 sequence: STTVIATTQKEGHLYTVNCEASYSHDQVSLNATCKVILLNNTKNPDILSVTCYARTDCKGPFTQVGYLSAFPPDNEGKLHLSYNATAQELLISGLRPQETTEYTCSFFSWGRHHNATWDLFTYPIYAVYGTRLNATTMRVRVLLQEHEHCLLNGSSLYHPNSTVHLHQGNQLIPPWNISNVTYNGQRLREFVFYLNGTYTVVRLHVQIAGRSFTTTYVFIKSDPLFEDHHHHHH
As to the kind of experiment: ELISA, coated supernatant.

Assay [4] has as its target T6, gp68 on stably transduced HeLa cells (HCMV strain AD169, UniProt P16739 24-345).
T6 construct: whole, on cells; also called plasma membrane exposed gp68
T6 sequence: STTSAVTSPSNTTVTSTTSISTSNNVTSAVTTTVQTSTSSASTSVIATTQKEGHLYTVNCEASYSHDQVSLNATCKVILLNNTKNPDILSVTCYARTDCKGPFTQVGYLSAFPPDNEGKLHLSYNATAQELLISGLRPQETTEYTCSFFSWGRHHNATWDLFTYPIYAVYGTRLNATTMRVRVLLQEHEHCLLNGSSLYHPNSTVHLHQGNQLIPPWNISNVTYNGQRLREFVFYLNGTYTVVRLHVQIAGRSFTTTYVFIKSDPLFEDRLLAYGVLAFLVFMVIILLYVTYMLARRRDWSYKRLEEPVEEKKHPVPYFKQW
Kind of assay: flow cytometry, HeLa, 1 µg/ml. Background: In flow cytometry, cells or beads pass a laser one at a time.

The next assay addresses T7, gp68_ECD_4a* (1-144aa) (HCMV strain AD169, UniProt P16739 24-144).
T7 construct: Shortened by a stop codon that arose in cloning, so a C-terminal tag is doubtful
T7 sequence: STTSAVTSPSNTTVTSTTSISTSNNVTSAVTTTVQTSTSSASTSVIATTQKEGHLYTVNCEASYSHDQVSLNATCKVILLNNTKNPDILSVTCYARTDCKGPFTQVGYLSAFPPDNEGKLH
As to the kind of experiment: ELISA, coated supernatant.

For the next assay, the target named is gp68_ECD_4b (1-152) (HCMV strain AD169, UniProt P16739 24-152). As to the kind of experiment: ELISA, coated supernatant.
For assay [5], the target named is T8, native vFcγR gp34 of HCMV AD169 (infected cells, virions) (HCMV strain AD169, UniProt P16809 24-234).
T8 construct: also called native HCMV gp34 protein; gp34/RL11
T8 sequence (looked up): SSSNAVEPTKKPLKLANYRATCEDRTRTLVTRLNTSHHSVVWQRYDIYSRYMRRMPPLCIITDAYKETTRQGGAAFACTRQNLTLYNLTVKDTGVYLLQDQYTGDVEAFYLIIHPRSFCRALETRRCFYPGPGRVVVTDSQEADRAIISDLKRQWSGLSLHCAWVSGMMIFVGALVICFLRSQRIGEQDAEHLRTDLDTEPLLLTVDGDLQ
Kind of assay: IP from infected cells; Fc-mediated background per the filing.
Procedure: Finally, anti-vFcγR gp68 mAbs were used for immunoprecipitation experiments. MRC5 fibroblasts were infected with HCMV AD169wt strain or a virus mutant lacking vFcγR gp68 (Δgp68) for 4 days with MOI 3. Infected cells were metabolically labeled with ³⁵S for 2 hours at 37° C., washed and lysed using NP40-lysis buffer. Lysates were incubated with indicated mAbs or human IgG Fc-fragment to pulldown vFcγR gp68 specifically or both HCMV-encoded vFcγRs gp34, gp68 using human IgG-Fc-fragment to precipitated Fc-binding proteins. Samples were deglycosylated by EndoH and separated on SDS-page gradient gel.
MRC5 fibroblast were infected with MOI 2. Four days post infection cells were metabolically labelled and following lysates were incubated with indicated anti-gp68 mAbs or human IgG-Fc-fragment for precipitation of vFcγR gp68.

The target of assay [6] is T9, soluble gp34 ectodomain W65F, V5-His tagged (sgp34mtrp-V5-His) (HCMV strain AD169).
T9 construct: signal peptide 1-23 left out; V5 and His tags are in the entry; Forms only monomers and dimers; also called sol gp34mtrp; gp34 1-179 W65F
T9 chain: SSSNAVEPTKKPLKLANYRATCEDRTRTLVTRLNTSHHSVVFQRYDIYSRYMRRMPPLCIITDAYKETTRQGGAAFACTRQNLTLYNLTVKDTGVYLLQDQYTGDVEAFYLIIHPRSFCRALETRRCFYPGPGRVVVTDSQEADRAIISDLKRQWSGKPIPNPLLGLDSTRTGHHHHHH
As to the kind of experiment: ELISA mtrp.

For assay [7], the target named is T10, gp34wt on stably transduced HeLa cells (HCMV strain AD169, UniProt P16809 24-234).
T10 construct: whole, on cells; also called plasma membrane exposed gp34wt
T10 sequence: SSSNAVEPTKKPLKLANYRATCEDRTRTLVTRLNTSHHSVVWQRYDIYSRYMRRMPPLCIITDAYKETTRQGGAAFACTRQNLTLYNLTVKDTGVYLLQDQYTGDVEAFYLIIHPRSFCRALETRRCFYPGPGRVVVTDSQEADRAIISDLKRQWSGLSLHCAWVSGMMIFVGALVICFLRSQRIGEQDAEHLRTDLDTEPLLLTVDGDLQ
Kind of assay: flow cytometry, HeLa, 1 µg/ml.

The target of assay [8] is T11, gp34mtrp (W65F) on stably transduced HeLa cells (HCMV strain AD169, UniProt P16809 24-234).
T11 construct: whole, on cells; also called plasma membrane exposed gp34mtrp
T11 sequence: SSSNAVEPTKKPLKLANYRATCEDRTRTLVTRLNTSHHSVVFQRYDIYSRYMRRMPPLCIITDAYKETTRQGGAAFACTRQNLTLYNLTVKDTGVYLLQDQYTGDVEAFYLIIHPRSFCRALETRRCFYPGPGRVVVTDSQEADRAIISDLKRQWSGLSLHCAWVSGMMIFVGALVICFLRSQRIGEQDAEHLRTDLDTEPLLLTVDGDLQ
Kind of assay: flow cytometry, HeLa, 1 µg/ml.

Assay [9] has as its target T12, soluble gp34 wild type ectodomain, V5-His tagged (sgp34wt-V5-His) (HCMV strain AD169).
T12 construct: Entry holds signal peptide 1-23 (left out), ectodomain, V5 tag and His tag; Forms monomers, dimers and higher oligomers; also called sol gp34 wt; gp34 1-179
T12 chain: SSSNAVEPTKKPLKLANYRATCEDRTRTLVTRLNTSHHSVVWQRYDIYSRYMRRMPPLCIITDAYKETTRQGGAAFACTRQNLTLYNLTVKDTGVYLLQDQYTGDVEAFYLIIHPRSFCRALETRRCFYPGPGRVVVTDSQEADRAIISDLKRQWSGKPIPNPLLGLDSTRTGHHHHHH
Kind of assay: sgp34wt pre-incubated with mAb, ELISA on CRP.
Source text: In addition, binding of sgp34wt to immobilized CRP in absence of any mAb is depicted.

Assay [10] deals with T12, soluble gp34 wild type ectodomain, …. Kind of assay: sgp34wt pre-incubated with mAb, ELISA on FcRn.
Procedure: Furthermore, the gp34wt and FcRn interaction was investigated whereby various anti-gp34 mAbs were analyzed and their potential to block this interaction was identified. Experiments were performed as described before for IgG-blocking ELISA, but this time using immobilized FcRn as a novel gp34-ligand.
In addition, binding of sgp34wt to immobilized FcRn in absence of any mAb is depicted.
Assay [11] has the same target. Kind of assay: blocking of sgp34wt binding to immobilized human IgG, ELISA.
Procedure: FIG. 44: IgG blocking ability by anti-gp34mtrp mAbs. vFcγR gp34 is an HCMV encoded IgG-Fc-binding. Anti-gp34mtrp-specific mAbs (in titration) were pre-incubated with recombinant, sgp34wt (constant amount 1 μg/ml) and added to IgG-immobilized ELISA plates. […] Dose-dependent potential of mAbs used for blocking is indicated. Effect by non-specific mouse IgG isotype IgG1 is shown. In addition, binding of sgp34wt to immobilized IgG in absence of any mAb is depicted.
To test if anti-gp34wt specific mAbs can interfere with IgG-binding ability of gp34 and human IgG. Therefore, recombinant, sgp34wt was pre-incubated with indicated anti-gp34wt specific mAbs, mouse IgG isotype or PBS only. Next, antibody bound sgp34wt was incubated on IgG-immobilized ELISA plates.
Anti-gp34wt-specific mAbs (in titration) were pre-incubated with recombinant, sgp34wt (constant amount 1 μg/ml) and added to IgG-immobilized ELISA plates. […] Dose-dependent potential of mAbs used for blocking is indicated. […] In addition, binding of sgp34wt to immobilized IgG in absence of any mAb is depicted.

B1: gp68.01 (antibody, V domains shown)
VH: EVKLLESGPELVKPGSSVKISCKASGYSFADHIILWVKQSHGKSLEWIGNINPYSGNTIYNLNFKGKATLTVDKSSSTAYMQLNSLTSEDSAVYYCARIEGYYSMDYWGQGTSVTVSS
VL: DIVMTQTPLSLPVSLGDQASISCRSSQSIVHSNGNTYLEWYLQKPGQSPKVLIYKVSKRFSGVPDRFSGSGSGTDFTLKISRVEAEDMGVYYCFQGSHVPLTFGAGTKLELK
notes: mouse IgG1 hybridoma mAb; leader in entries
B1: the binding result is recorded as “binds” in assay [1]; “no binding” in [2]; “binds” with gp68_ECD_wt; “binds” with gp68_ECD_1 (1-201 aa); “binds” in assay [3]; “binds” in [4].

B2: gp68.02 (antibody, V domains shown)
VH: EVKLLQSGPELVKPGSSVKISCKASGYSFADHIILWVKQSHGKSLEWIGNINPYSGNTIYNLNFKGKATLTVDKSSSTAYMQLNSLTSEDSAVYYCARIEGYYSMDYWGQGTSVTVSS
VL: DIVLTQTPLSLPVSLGDQASISCRSSQSIVHSNGNTYLEWYLQKPGQSPKVLIYKVSKRFSGVPDRFSGSGSGTDFTLKISRVEAEDMGVYYCFQGSHVPLTFGAGTKLELK
notes: as for B1
Take B2: the binding result in assay [1] was “binds”; in [2], “no binding”; with gp68_ECD_wt, “binds”; in the assay with gp68_ECD_1 (1-201 aa), “binds”; in assay [3] it was “binds”; in assay [4] it was “binds”.

B3: gp68.05 (antibody, V domains shown)
VH: QVKLEESGAELMKPGASVKISCTATGYTFSGYWIEWVKQRPGHGLEWIGEILPGSGGTNYNEKFKGKATFTADTSSNTAYMQLSSLTSEDSAVYYCARGIHYFGYYYFDYWGQGTTLTVSSAKTTPPSVY
VL: DIVLTQTPSSLSASLGDRVTISCRASQDISNYLNWYQLKPDGTVKLLIYYTSRLHSGVPSRFSGSGSGTDYSLTISNLEQEDIATYFCQQGNTLPPTFGGGTKLEIKRADAAPTVS
notes: mouse IgG1 hybridoma mAb; leader in entries; also called anti gp68 clone 68.05
Take B3: the binding result in assay [1] is listed as “binds”; in assay [2], “no binding”; with gp68_ECD_wt, “binds”; with gp68_ECD_1 (1-201 aa), “no binding (tested: 1 µg/ml)”; with gp68_ECD_4a* (1-144aa), “no binding (tested: 1 µg/ml)”; with gp68_ECD_4b (1-152), “no binding (tested: 1 µg/ml)”. Moreover, the binding result in [3] and in assay [5] was “binds” in each case.

B4: gp68.06 (antibody, V domains shown)
VH: QVKLEQSGAELMKPGASVKISCTATGYTFSGYWIEWVKQRPGHGLEWIGEILPGSGGTNYNEKFKGKATFTADTSSNTAYMQLSSLTSEDSAVYYCARGIHYFGYYYFDYWGQGTTLTVSSAKTTPPSVY
VL: DIVLTQSPSSLSASLGDRVTISCRASQDISNYLNWYQLKPDGTVKLLIYYTSRLHSGVPSRFSGSGSGTDYSLTINNLEQEDIATYFCQQGNTLPPTFGGGTKLEIKRADAAPTVS
notes: mouse IgG1 hybridoma mAb; leader in entries; also called anti gp68 clone 68.06
For the molecule B4, the binding result is given as “binds” in assay [1]; “no binding” in assay [2]; “binds” with gp68_ECD_wt; “no binding (tested: 1 µg/ml)” with gp68_ECD_1 (1-201 aa); “no binding (tested: 1 µg/ml)” with gp68_ECD_4a* (1-144aa); “no binding (tested: 1 µg/ml)” in the assay with gp68_ECD_4b (1-152). Moreover, the binding result in assay [3] and in assay [5] was “binds” each time.

B5: gp34mtrp.01 (antibody, V domains shown)
VH: QVKLEESGAELVKPGASVKLSCTGSGFNIKDIYMDWVKQRPEQGLEWIGRIDPANGNSKYDPKFQGKATITVDTSSNTAYLQLSSLTSEDTAVYYCASYYGSSYNYWGQGTTLTVSS
VL: DIVITQTPPSVPVTPGESVSISCRSSKSLLHSNGNTYLYWFLQRPGQSPQLLIYRMSNLASGVPDRFSGSGSGTAFTLRISRVEAEDVGVYYCMQHLEYPLTFGAGTKLELKRADAAPTVS
notes: mouse IgG1 hybridoma mAb; leader in entries; also called anti gp34 clone mtrp.01
Consider B5, for which the binding result in assay [6], in [7] and in [8] was “binds” throughout. The “percent blocking of gp34-CRP-binding” value in assay [9] is ~50%. In addition, in assay [10], the “percent blocking of gp34 FcRn-binding” value is ≤ 50%. In assay [11], this molecule had a half-maximal inhibitory concentration (IC50) of 0.239 µg/mL.

B6: gp34mtrp.02 (antibody, V domains shown)
VH: QVKLEQSGAELVKPGASVKLSCTGSGFNIKDIYMDWVKQRPEQGLEWIGRIDPANGNSKYDPKFQGKATITVDTSSNTAYLQLSSLTSEDTAVYYCASYYGSSYNYWGQGTTLTVSS
VL: DIVITQTPPSVPVTPGESVSISCRSSKSLLHSNGNTYLYWFLQRPGQSPQLLIYRMSNLASGVPDRFSGSGSGTAFTLRISRVEAEDVGVYYCMQHLEYPLTFGAGTKLELKRADAAPTVS
notes: mouse IgG1 hybridoma mAb; leader in entries; also called anti gp34 clone mtrp.02
For the molecule B6, the binding result in assay [6], in assay [7] and in assay [8] was “binds” each time. In addition, the “percent blocking of gp34-CRP-binding” value in assay [9] was ~50%. The “percent blocking of gp34 FcRn-binding” value in assay [10] was ≤ 50%. For the same molecule, the IC50 in assay [11] was 0.33 µg/mL.
